Assay results from patent US20260234234A1 (QILU PUGET SOUND BIOTHERAPEUTICS, published 2026).
Substitutions are numbered along the chain they refer to. Numbers in names are those of the source. Like-named read-outs stand apart in the source and are kept apart here. Blank lines part the entries; values can stand above or below the binder they belong to.

Tests used:
[1] = target: T1, Avitag_c-MYC_His6-tagged hIL-33 (Ser112-Thr270), QB10975 (human); experiment: SPR, captured antibody, hIL-33 analyte, 37 C, 1:1 fit
T1 construct: Entry includes N-terminal Avitag, c-MYC and His6 tags; reduced with DTT to the active form; also called active hIL-33; reduced hIL-33
T1 chain: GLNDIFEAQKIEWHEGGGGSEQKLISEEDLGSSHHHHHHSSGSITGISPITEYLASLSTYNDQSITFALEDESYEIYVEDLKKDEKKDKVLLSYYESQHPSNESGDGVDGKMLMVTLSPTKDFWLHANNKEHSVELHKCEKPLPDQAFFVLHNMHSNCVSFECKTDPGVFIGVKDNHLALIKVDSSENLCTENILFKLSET

[2] = target: T2, His6-tagged cyIL-33 (Ser112-Ile270), QB10976 (cynomolgus monkey); experiment: SPR, captured antibody, cyIL-33 analyte, 25 C, 1:1 fit
T2 construct: Entry includes N-terminal Avitag, FLAG and His6 tags; isoform X1, NCBI XP_005581824; also called cyIL-33 antigen
T2 chain: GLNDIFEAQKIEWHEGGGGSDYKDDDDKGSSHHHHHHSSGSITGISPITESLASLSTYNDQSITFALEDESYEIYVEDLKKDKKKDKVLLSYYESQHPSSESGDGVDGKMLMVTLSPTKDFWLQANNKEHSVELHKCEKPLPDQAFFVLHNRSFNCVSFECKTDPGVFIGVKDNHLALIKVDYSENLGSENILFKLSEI

[3] = target: T1, Avitag_c-MYC_His6-tagged hIL-33 …; experiment: SPR competition, antibody titrated against 10 nM hIL-33, over immobilised hST2-Fc
[4] = target: T2, His6-tagged cyIL-33 (Ser112-Ile270), …; experiment: SPR, cyIL-33 analyte
[5] = target: T2, His6-tagged cyIL-33 (Ser112-Ile270), …; experiment: cell-based or functional assay
[6] = target: T3, hIL-33 used in the cell-based assays of Example 13 (human, UniProt O95760 112-270); experiment: cell-based or functional assay
T3 sequence (looked up): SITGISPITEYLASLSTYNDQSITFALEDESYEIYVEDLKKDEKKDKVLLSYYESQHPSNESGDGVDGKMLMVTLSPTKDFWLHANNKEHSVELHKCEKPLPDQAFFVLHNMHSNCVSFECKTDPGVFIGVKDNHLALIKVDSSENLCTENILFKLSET

[7] = target: T4, Avitag_c-MYC_His6_hTSLP QB11631 with mutations of R127A + R130S (human); experiment: SPR (Biacore), hTSLP (R127A+R130S) antigen
T4 construct: Substitutions and tags already in the entry; also called hTSLP (R127A+R130S)

[8] = target: T5, cyTSLP antigen, version not stated (cynomolgus monkey, UniProt A0A7N9CAT7 29-159); experiment: SPR (Biacore)
T5 construct: Used where the text only says cyTSLP

[9] = target: T4, Avitag_c-MYC_His6_hTSLP QB11631 with …; experiment: SPR (Biacore)
[10] = target: hTSLP antigen, version not stated (human, UniProt Q969D9 29-159, limits assumed); experiment: cell-based or functional assay
[11] = target: T6, Avitag_FLAG_His6_cyTSLP QB10974 with deletion of 126KRRKR130 (cynomolgus monkey); experiment: cell-based or functional assay
T6 chain: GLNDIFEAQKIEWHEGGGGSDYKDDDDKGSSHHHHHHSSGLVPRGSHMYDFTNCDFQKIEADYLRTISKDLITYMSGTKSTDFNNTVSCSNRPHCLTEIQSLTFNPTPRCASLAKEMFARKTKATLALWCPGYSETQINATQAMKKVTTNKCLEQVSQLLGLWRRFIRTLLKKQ

[12] = target: T7, Avitag_FLAG_His6_cyTSLP QB11632 (wild type) (cynomolgus monkey); experiment: cell-based or functional assay
T7 chain: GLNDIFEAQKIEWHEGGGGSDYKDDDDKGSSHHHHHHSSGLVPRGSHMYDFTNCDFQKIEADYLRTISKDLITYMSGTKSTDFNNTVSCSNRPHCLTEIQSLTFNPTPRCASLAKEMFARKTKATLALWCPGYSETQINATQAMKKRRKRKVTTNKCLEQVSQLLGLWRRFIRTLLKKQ

[13] = target: T8, Avitag_FLAG_His6_cyTSLP QB11633 with mutations of R127A + R130S (cynomolgus monkey); experiment: cell-based or functional assay
T8 chain: T7 chain with R147A, R150S

[14] = target: T4, Avitag_c-MYC_His6_hTSLP QB11631 with …; experiment: SPR (Biacore), hTSLP (R127A+R130S) antigen; remark: listed apart in the source
[15] = target: Avitag_c-MYC_His6_hTSLP (wild type) QB11630 (human); experiment: cell-based or functional assay
[16] = target: T4, Avitag_c-MYC_His6_hTSLP QB11631 with …; experiment: cell-based or functional assay
[17] = target: T9, Avitag_c-MYC_His6_hTSLP QB11033 with deletion of 126KRRKR130 (human); experiment: cell-based or functional assay
T9 chain: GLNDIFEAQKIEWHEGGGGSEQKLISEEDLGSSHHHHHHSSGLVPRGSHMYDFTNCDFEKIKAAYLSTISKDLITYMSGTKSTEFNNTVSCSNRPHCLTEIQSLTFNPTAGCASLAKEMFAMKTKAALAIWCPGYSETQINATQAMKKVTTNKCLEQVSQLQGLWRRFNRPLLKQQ

[18] = target: Avitag_c-MYC_His6_hTSLP (wild type) QB11630 (human); experiment: cell-based or functional assay; remark: listed apart in the source
[19] = target: T4, Avitag_c-MYC_His6_hTSLP QB11631 with …; experiment: cell-based or functional assay; remark: listed apart in the source
[20] = target: T9, Avitag_c-MYC_His6_hTSLP QB11033 with …; experiment: cell-based or functional assay
[21] = target: T6, Avitag_FLAG_His6_cyTSLP QB10974 with …; experiment: cell-based or functional assay
[22] = target: T7, Avitag_FLAG_His6_cyTSLP QB11632 (wild …); experiment: cell-based or functional assay
[23] = target: T8, Avitag_FLAG_His6_cyTSLP QB11633 with …; experiment: cell-based or functional assay

Kd [1]: 0.387 nM
koff [1]: 0.000628 s⁻¹
kon [1]: 1.62e+06 M⁻¹ s⁻¹
Kd [2]: 6.22 nM
koff [2]: 0.000992 s⁻¹
kon [2]: 160000 M⁻¹ s⁻¹
IC50 [3]: 0.927 nM
B1: humanized anti-hIL-33 antibody QB11004 (antibody, human IgG1, kappa, V domains shown)
VH: EVQLLESGGGLVQPGGSLRLSCAASGFTFYSSAMSWVRQTQGKGLEWVSTISSGGSNTYYPDSVKGRFTISRDNSKNTLYLQMNSLGAEDTAVYYCASAYYGRRYDAMDYWGQGTLVTVSS
VL: DVVMTQSPPSLPVTLGQSASISCKSSKSLLHSNGNTYLYWFQQRPGQSPQLLIYRMSNLASGVPDRFSGSGSGTDFTLKISRVEAEDVGVYYCMQHLENPYTFGQGTKVEIKR

Kd [1]: 0.397 nM
koff [1]: 0.000604 s⁻¹
kon [1]: 1.52e+06 M⁻¹ s⁻¹
Kd [2]: 15.8 nM
koff [2]: 0.00206 s⁻¹
kon [2]: 131000 M⁻¹ s⁻¹
B2: anti-hIL-33 antibody QB11119 (antibody, human IgG1, kappa, L234A L235A, V domains shown)
VH: B1 VH
VL: B1 VL with G34A
notes: hIgG1 with L234A+L235A+P329A; G29A in the VL against QB11061; also called parental antibody QB11119

Kd [1]: 0.306 nM
koff [1]: 0.000567 s⁻¹
kon [1]: 1.85e+06 M⁻¹ s⁻¹
Kd [2]: 4.75 nM
koff [2]: 0.000893 s⁻¹
kon [2]: 188000 M⁻¹ s⁻¹
B3: anti-hIL-33 antibody QB11061 (antibody, human IgG1, kappa, V domains shown)
VH: B1 VH with Q41P
VL: B1 VL
notes: QB11004 with Q41P in VH-FW2

Kd [1]: 0.209 nM
koff [1]: 0.000695 s⁻¹
kon [1]: 3.33e+06 M⁻¹ s⁻¹
fold improvement of affinity against parental antibody QB11119 [4]: ~3 fold
Kd [2]: 5.14 nM
koff [2]: 0.00191 s⁻¹
kon [2]: 371000 M⁻¹ s⁻¹
IC50, inhibition of cyIL-33-induced p38 MAPK phosphorylation in ILC2s (FIG. 17D) [5]: 4.4 nM
IC50, inhibition of hIL-33-induced IFNγ secretion from primary human NK cells [6]: 1 nM
IC50, inhibition of hIL-33-induced hIL-5 secretion from primary human ILC2 cells [6]: 2.39 nM
IC50, inhibition of hIL-33-induced p38 MAPK phosphorylation in ILC2s (FIG. 17C) [6]: 0.33 nM
IC50, inhibition of hIL-33-induced p38 MAPK phosphorylation in ILC2s (FIG. 17D) [6]: 0.82 nM
B4: anti-hIL-33 IgG4 antibody QB11465 (antibody)
heavy: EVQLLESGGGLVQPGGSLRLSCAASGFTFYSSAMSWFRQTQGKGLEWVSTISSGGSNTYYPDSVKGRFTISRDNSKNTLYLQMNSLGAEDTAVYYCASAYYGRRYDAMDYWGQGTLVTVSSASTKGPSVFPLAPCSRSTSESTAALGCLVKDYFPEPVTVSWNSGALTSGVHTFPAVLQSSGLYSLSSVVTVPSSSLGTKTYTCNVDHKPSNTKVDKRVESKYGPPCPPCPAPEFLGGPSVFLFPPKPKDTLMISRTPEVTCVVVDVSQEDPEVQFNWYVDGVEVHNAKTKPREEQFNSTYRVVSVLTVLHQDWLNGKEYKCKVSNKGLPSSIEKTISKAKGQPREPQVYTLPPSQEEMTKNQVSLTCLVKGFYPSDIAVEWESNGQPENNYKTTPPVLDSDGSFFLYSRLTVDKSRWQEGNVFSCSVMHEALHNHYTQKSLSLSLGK
light: DVVMTQSPPSLPVTLGQSASISCKSSESLLHSNANTYLYWFQQRPGQSPQLLIYRGSNLASGVPDRFSGSGSGTDFTLKISRVEAEDVGVYYCMQHLRNPYTFGQGTKVEIKRTVAAPSVFIFPPSDEQLKSGTASVVCLLNNFYPREAKVQWKVDNALQSGNSQESVTEQDSKDSTYSLSSTLTLSKADYEKHKVYACEVTHQGLSSPVTKSFNRGEC
notes: also called lead anti-hIL-33 IgG4 antibody

Kd [7]: 1.62 nM
koff [7]: 0.000852 s⁻¹
kon [7]: 527000 M⁻¹ s⁻¹
fold binding difference between hTSLP and cyTSLP [8]: < 10 fold
fold lower binding affinity against comparator QB10985 [9]: 8.8 fold
B5: anti-hTSLP QB11060, humanized antibody clone hz-3C-V6 (antibody, human IgG4 S228P, kappa, V domains shown)
VH: QVQLVQSGPEVKKPGSSVKVSCKASGYIFTDYAMHWVRQRPGQGLEWMGTFIPLLDTSDYNQNFKGRATITADKSTSTAYMELSSLRSEDTAVYYCARMGVTHSYVMDAWGQGTLVTVSS
VL: EIVLTQSPGTLSLSPGERATLSCRASQPISISVHWYQQKPGEAPRLLIYFASQSISGIPDRFSGSGSGTDFTLTISRLESEDFAVYYCQQTFSLPYTFGTGTKVEIKR
notes: hz-3C with D9P + S108L in the VH

IC50, inhibition of hTSLP-induced CCL17 release from human monocytes [10]: 4.24 nM
B6: rabbit anti-hTSLP monoclonal antibody clone 135F1 (antibody, V domains shown)
VH: QEQLEESGGDLVKPEGSLTLTCKASGFDFSSYWISWVRQAPGKRPEWIACIDSDIDSADYASWAKGRFTMSRTSSTTVTLQMTSLTAADTATYFCVRNLGLWGPGTLVTVSS
VL: AQVLTQTASPVSAAVGGTVTINCQSSQNVYDKDALAWYQHKPGQRPKLLIYEASKLASGVPSRFSGSGAGTQFTLTISGVQCDDAATYYCAGTFIDNIYTFGGGTEVVVKG

IC50 (nM) for inhibition of CCL17 secretion [11]: 0.712 nM
IC50 (nM) for inhibition of CCL17 secretion [12]: 0.888 nM
IC50 (nM) for inhibition of CCL17 secretion [13]: 0.93 nM
Kd [14]: 1.76 nM
koff [14]: 0.00148 s⁻¹
kon [14]: 842000 M⁻¹ s⁻¹
IC50 (nM) for inhibition of CCL17 secretion [15]: 0.333 nM
IC50 (nM) for inhibition of CCL17 secretion [16]: 0.626 nM
IC50 (nM) for inhibition of CCL17 secretion [17]: 0.361 nM
fold lower binding affinity against comparator antibody QB10985 [9]: ~10 fold
B7: anti-hTSLP antibody QB11341, humanized clone 135F1 (antibody, human IgG4 S228P, kappa, V domains shown)
VH: EVQLVESGGGLVQPGGSLRLSCAASGFDFSSYWISWVRQAPGKGPEWIASIDIDIDIADYASWAKGRFTISRDNSKNTLYLQMNSLRAEDTAVYYCVRNLGLWGPGTLVTVSS
VL: DIQMTQSPSSLSASVGDRVTITCQSSQNVYDKDALAWYQHKPGKRPKLLIYEASKLASGVPSRFSGSGSGTHFTLTISSLQPEDAATYYCAGTFIDNIYTFGGGTKVEIKR
notes: also called QB1341; top clone

IC50 (nM) for inhibition of CCL17 secretion [18]: 0.0757 nM
IC50 (nM) for inhibition of CCL17 secretion [19]: 0.286 nM
IC50 (nM) for inhibition of CCL17 secretion [20]: 0.0921 nM
IC50 (nM) for inhibition of CCL17 secretion [21]: 0.251 nM
IC50 (nM) for inhibition of CCL17 secretion [22]: 0.254 nM
IC50 (nM) for inhibition of CCL17 secretion [23]: 0.464 nM
B8: anti-hTSLP antibody QB11548, humanized clone 135F1 after yeast display (antibody, human IgG4 S228P, kappa, V domains shown)
VH: B7 VH
VL: B7 VL with K55R, F94R
